Data as given in patent US7951914B2, “Genetically modified cyclic-nucleotide controlled ion channels” (Forschungszentrum Julich GmbH, priority 2001, dated 2011).
Where a chain is given by its changes, count along the chain named. In names and notes the source's numbering stands.

Tests used:
[1] = target: Drosophila dopamine receptor (Drosophila melanogaster, UniProt P41596); settings: dopamine 25-600 nM, FIG. 5A
Protocol: On the day after transfection, the cells were seeded into a multiwell plate with 96 wells. The cell density per well was 2×10^4 cells.
The fluorimetric measurements of intracellular Ca^2+ concentrations were carried out in multiwell plates with 96 wells (FIG. 5A-5G). The cells were loaded with the Ca^2+-sensitive fluorescent dye Fluo-4 one hour before the measurement. The loading solution contained 120 mM of NaCl, 3 mM of KCl, 50 mM of glucose, 10 mM of Hepes (pH 7.4), 3 mM of MgCl2 and 4 μm of Fluo4-AM (molecular probes). The measuring solution contained 120 mM of NaCl, 3 mM of KCl, 50 mM of glucose, 10 mM of Hepes (pH 7.4) and 3 mM of CaCl2. The time course of the change in fluorescence intensity after application of agonists, antagonists, enzyme activators or enzyme inhibitors was registered using a fluorescence reader (FLUOstar, BMG-Labtechnologies). The excitation wavelength was 485 nm. The emission wavelength was 520 nm.

[2] = test system: endogenous phosphodiesterase (PDE); assay: Fluorescence-optical Ca2+ measurement: phosphodiesterase inhibition with T537M cAMP sensor; assay type: cell-based, human; settings: IBMX 0-100 μm, then 5 μm forskolin, FIG. 5E
Excerpt: (§1) The excitation wavelength was 485 nm. The emission wavelength was 520 nm.
The effect of a phosphodiesterase (PDE) inhibitor on the forskolin-induced change in intracellular Ca^2+ concentration is shown. Cells which stably express the T537M mutants of the α3-CNG channel were first treated with different concentrations of the PDE inhibitor IBMX and then stimulated with 5 μm forskolin. […] The IBMX concentration was 0 μm (filled circles), 10 μm (open circles), 50 μm (filled triangles) or 100 μm (open triangles).

Adenosine A2B receptor = target: T1, Adenosine A2B receptor (Rattus norvegicus, UniProt P29276); settings: Peakman and Hill 1994, primary rat astrocytes; read-out: K1/2 value indicated in the literature; cited from earlier work
T1 construct: host or cells: primary rat astrocytes
T1 sequence (P29276 1-332): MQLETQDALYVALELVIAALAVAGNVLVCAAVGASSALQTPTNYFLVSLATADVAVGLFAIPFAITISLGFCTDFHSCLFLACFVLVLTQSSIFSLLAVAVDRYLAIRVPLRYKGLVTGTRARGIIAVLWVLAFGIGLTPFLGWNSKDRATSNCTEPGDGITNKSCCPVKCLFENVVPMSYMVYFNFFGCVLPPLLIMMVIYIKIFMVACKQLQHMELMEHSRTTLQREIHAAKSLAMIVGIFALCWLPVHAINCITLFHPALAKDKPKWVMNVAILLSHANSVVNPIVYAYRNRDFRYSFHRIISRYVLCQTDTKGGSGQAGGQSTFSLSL

[3] = target: T2, corticotropin-releasing factor (CRF) receptor (Rattus norvegicus, UniProt P35353); assay: Fluorescence-optical Ca2+ measurement: CRF receptor with T537M cAMP sensor; assay type: cell-based; settings: agonist CRF 100-1,000 pM, FIG. 5B
T2 construct: expressed in transfected cells; host or cells: HEK293 stably co-expressing pcCRFR1 and bovine α3 T537M
T2 sequence (P35353 24-415): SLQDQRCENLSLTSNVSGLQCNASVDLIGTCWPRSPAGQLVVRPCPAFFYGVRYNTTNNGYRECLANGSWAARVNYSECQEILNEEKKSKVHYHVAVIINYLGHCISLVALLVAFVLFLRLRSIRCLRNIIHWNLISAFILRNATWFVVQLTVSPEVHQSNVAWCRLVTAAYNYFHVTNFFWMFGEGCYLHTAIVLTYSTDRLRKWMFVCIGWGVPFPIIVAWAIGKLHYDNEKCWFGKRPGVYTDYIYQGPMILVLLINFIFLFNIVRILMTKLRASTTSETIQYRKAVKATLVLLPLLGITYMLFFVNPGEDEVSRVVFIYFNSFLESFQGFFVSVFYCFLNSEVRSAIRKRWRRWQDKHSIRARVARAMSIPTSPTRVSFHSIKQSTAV
Protocol: The CRF receptor was cloned by carrying out a PCR of primary strand cDNA of rat hypophyses, using the primers #843 (5′-[…]-3′) (SEQ ID NO 11) and #842 (5′-[…]-3′) (SEQ ID NO 12). A 100 μl PCR mixture comprised 10 ng of primary strand cDNA, 1×PCR buffer for Taq polymerase incl. 1.5 mM of MgCl2, 200 μm of dNTPs, 1 U of Taq polymerase and in each case 150 ng of the two primers. The PCR conditions were as follows. 2 minutes of denaturation at 94° C., followed by 44 cycles of in each case 45 s at 94° C., 45 s at 56° C., 75 s at 72° C. The 1271 bp fragment was cloned via BamHI and SacI in pBluescript SK^—into (pBCRFR1). […]
FIG. 5B depicts the fluorimetrically measured change in intracellular Ca^2+ concentration in cells which stably express both the corticotropin-releasing factor (CRF) receptor and the T537M mutant of the α3-CNG channel. The time course of fluorescence intensity after stimulation of the cells with the agonist CRF is shown. […]
Cells which stably express the corticotropin-releasing factor (CRF) receptor and the T537M mutants of the α3-CNG channel were treated with the helical antagonist 9-41 (Rivier J., Rivier C., and Vale W. W. (1984) Synthetic competitive antagonists of corticotropin-releasing factor: effect on ACTH secretion in the rat. Science, 224, 889-891), before being stimulated with CRF (1 nM). The time course of fluorescence intensity is shown. […]

[4] = test system: homooligomeric bovine α3 CNG channels; assay: Patch clamp electrophysiology of inside-out patches: activation of heterologously expressed CNG channels by cAMP and cGMP; assay type: biochemical; settings: for Hill coefficient n, cAMP / Hill coefficient n, cAMP, averaged / Hill coefficient n, cGMP / Hill coefficient n, cGMP, averaged: +100 mV; for Hill coefficient n, cAMP: fit of FIG. 1B / 3B; for Hill coefficient n, cAMP, averaged / Hill coefficient n, cGMP, averaged: normalized Hill equation; for Hill coefficient n, cAMP, averaged: averaged parameters (FIG. 1C / 3C); for Hill coefficient n, cGMP: fit of FIG. 2B / 4B; for Hill coefficient n, cGMP, averaged: averaged parameters (FIG. 2C / 4C); for relative selectivity: times more selective for cAMP: quotient K1/2 cGMP / K1/2 cAMP; for relative selectivity: times more selective for cGMP: quotient of K1/2 values
Excerpt: For this purpose, the corresponding nucleic acids were cloned into the expression vector pcDNA3.1 (Invitrogen) (see Methods). The expression constructs were then used to transform the cells of the human embryonic kidney cell line 293 (HEK293 cells) and the corresponding proteins were functionally expressed therein either transiently or stably (see Methods). The results of the studies are depicted in FIGS. 1-4. FIGS. 1-4 B depict the dependence of the average current on the cAMP concentration and cGMP concentration, respectively, in each case in the form of a dose-response relationship. The results of these measurements were used to calculate the sensitivity of the CNG channels to cAMP and cGMP. […] EMBO J., 13, 5040-5050. For electrophysiological characterization, the cells were transferred to glass slides which had been coated with poly L-lysine, on the day after transfection. The electrophysiological studies were then carried out on the following day. […] The electrophysiological characterization of the genetically modified CNG channels was carried out using the patch clamp technique under voltage clamping conditions. […] inside-out patches were excised from cells which stably expressed genetically modified or wild-type CNG channels. The bath solution containing different concentrations of cyclic nucleotides was used to flow over the membrane patches. Starting from a holding voltage of 0 mV, sudden voltage changes were applied to different test voltages between -100 mV and +100 mV at the patch with a step width of 20 mV. The currents were registered and analyzed using standard methods.

α3-CNG channel = assay: Fluorescence-optical Ca2+ measurement: cAMP sensor sensitivity of α3-CNG channel variants after adenosine stimulation; assay type: cell-based
Excerpt: as §1
The extent of the change in intracellular Ca^2+ concentration (fluorescence signal) was plotted as a function of time. […] Cells which stably express the T537S mutant of the α3-CNG channel were also stimulated for comparison.

[5] = maximum stimulation with 25 μm adenosine

Sequence of Drosophila dopamine receptor (P41596 20-511): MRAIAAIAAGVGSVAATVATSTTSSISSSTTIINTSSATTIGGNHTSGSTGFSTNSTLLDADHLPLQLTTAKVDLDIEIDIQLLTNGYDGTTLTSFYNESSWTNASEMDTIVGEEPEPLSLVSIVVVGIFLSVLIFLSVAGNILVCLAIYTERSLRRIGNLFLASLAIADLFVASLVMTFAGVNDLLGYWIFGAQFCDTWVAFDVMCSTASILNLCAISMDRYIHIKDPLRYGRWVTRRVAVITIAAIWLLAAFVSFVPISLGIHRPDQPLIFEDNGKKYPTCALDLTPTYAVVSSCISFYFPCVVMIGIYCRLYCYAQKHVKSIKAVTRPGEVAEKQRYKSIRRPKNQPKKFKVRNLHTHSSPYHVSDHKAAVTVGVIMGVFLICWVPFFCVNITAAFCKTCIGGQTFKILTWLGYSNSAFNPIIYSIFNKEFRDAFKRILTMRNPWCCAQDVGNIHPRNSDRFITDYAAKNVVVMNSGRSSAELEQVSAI

With `NCCc1ccc(O)c(O)c1` [dopamine] the “speed and extent of the change in Ca2+ concentration” value [1] was “depend on the dopamine concentration”.

With `CC(C)Cn1c(=O)n(C)c(=O)c2[nH]cnc21` [IBMX] the “extent of the forskolin-induced change in intracellular Ca2+ concentration” value [2] was “depend on the concentration of the PDE inhibitor”.

In the case of `Nc1ncnc2c1ncn2[C@@H]1O[C@H](CO)[C@@H](O)[C@H]1O` [adenosine], the EC50 (Adenosine A2B receptor) is given as 5 µM.

For “CRF: corticotropin-releasing factor, agonist of the CRF receptor”, the “speed and extent of the change in Ca2+” value [3] was “depend on the CRF concentration”.

B1: T537M: bovine α3 CNG channel with methionine in place of threonine T537 (SEQ ID NO 4) (protein, UniProt Q03041 1-663, looked up, variant T537M)
Cyclic nucleotide-gated …: MTEKANGVKSSPANNHNHHAPPAIKASGKDDHRASSRPQSAAADDTSSELQQLAEMDAPQQRRGGFRRIARLVGVLREWAYRNFREEEPRPDSFLERFRGPELHTVTTQQGDGKGDKDGEGKGTKKKFELFVLDPAGDWYYRWLFLIALPVLYNWCLLVARACFSDLQKGYYIVWLVLDYVSDVVYIADLFIRLRTGFLEQGLLVKDTKKLRDNYIHTMQFKLDVASIIPTDLIYFAVGIHNPEVRFNRLLHFARMFEFFDRTETRTSYPNIFRISNLILYILIIIHWNACIYYAISKSIGFGVDTWVYPNITDPEYGYLSREYIYCLYWSTLTLTTIGETPPPVKDEEYLFVIFDFLIGVLIFATIVGNVGSMISNMNATRAEFQAKIDAVKHYMQFRKVSKEMEAKVIRWFDYLWTNKKSVDEREVLKNLPAKLRAEIAINVHLSTLKKVRIFQDCEAGLLVELVLKLRPQVFSPGDYICRKGDIGKEMYIIKEGKLAVVADDGVTQYALLSAGSCFGEISILNIKGSKMGNRRMANIRSLGYSDLFCLSKDDLMEAVTEYPDAKRVLEERGREILMKEGLLDENEVAASMEVDVQEKLEQLETNMDTLYTRFARLLAEYTGAQQKLKQRITVLETKMKQNNEDDSLSDGMNSPEPPAEKP
In the case of B1, the “Hill coefficient n, cAMP” value [4] is reported as 2.4, the “Hill coefficient n, cAMP, averaged” value [4] is reported as 2.4 and the “Hill coefficient n, cGMP” value [4] is reported as 2.0. For the same molecule, the “Hill coefficient n, cGMP, averaged” value [4] was 1.9, the “relative selectivity: times more selective for cAMP” value [4] was “about 6 times” and the “times less sensitive to cGMP in comparison with the T537S mutant” value ([4]; ratio of K1/2 values) was 21 times. For the same molecule, the “times less sensitive to cGMP in comparison with the wild type” value ([4]; ratio of K1/2 values) was “about 9 times”, the “times more sensitive to cAMP in comparison with the T537S mutant” value ([4]; ratio of K1/2 values) was “about 5 times” and the “times more sensitive to cAMP in comparison with the wild type” value ([4]; ratio of K1/2 values) was “about 30 times”. The “change in fluorescence signal (intracellular Ca2+)” value (shortened to “change in fluorescence signal”) (α3-CNG channel; stimulation with 3 μm adenosine (about half maximum)) was “distinct increase in the fluorescence signal”.

B2: T537S: known bovine α3 CNG channel subunit in which threonine 537 is replaced with serine (protein, UniProt Q03041 1-663, looked up, variant T537S)
Cyclic nucleotide-gated …: B1 Cyclic nucleotide-gated … with M537S
For B2, the “relative selectivity: times more selective for cGMP” value [4] was “about 20 times” and the “change in fluorescence signal” value (α3-CNG channel; [5]) was “only a very low increase in the fluorescence signal”.

B3: Wild Type: wild-type α3 subunit of the bovine CNG channel (SEQ ID NO 2) (protein)
chain: B1 Cyclic nucleotide-gated … with M537T
modifications: Bovine
For B3, the “Hill coefficient n, cAMP, averaged” value [4] was 2.0, the “Hill coefficient n, cGMP, averaged” value [4] was 2.0 and the “relative selectivity: times more selective for cGMP” value [4] was “about 50 times”. The “change in fluorescence signal” value (α3-CNG channel; [5]) was “no increase in the fluorescence signal”.

B4: T537V: bovine α3 CNG channel with valine in place of threonine T537 (SEQ ID NO 6) (protein)
chain: B1 Cyclic nucleotide-gated … with M537V
modifications: Bovine
For B4, the “Hill coefficient n, cAMP” value [4] was 2.2, the “Hill coefficient n, cAMP, averaged” value [4] was 1.5 and the “Hill coefficient n, cGMP” value [4] was 2.2. The “Hill coefficient n, cGMP, averaged” value [4] was 2.1, the “relative selectivity: times more selective for cAMP” value [4] was “about 6 times” and the “times less sensitive to cAMP than the T537S mutant” value ([4]; ratio of K1/2 values) was “about 2.5 times”. For the same molecule, the “times less sensitive to cGMP in comparison with the T537S mutant” value ([4]; ratio of K1/2 values) was “about 350 times”, the “times less sensitive to cGMP in comparison with the wild type” value ([4]; ratio of K1/2 values) was “about 150 times” and the “times more sensitive to cAMP in comparison with the wild type” value ([4]; ratio of K1/2 values) was ~3 times.
